Measurements as given in patent US20200165325A1.

How the values were obtained:
[1] = target: HIV-1 Env of strain 1056_10_TA11_1826 (HIV-1)
[2] = target: HIV-1 Env of strain 231966.c02 (HIV-1)
[3] = target: HIV-1 Env of strain 3817.v2.c59 (HIV-1)
[4] = target: HIV-1 Env of strain 6545.v4.c1 (HIV-1)
[5] = target: HIV-1 Env of strain C1080.c03 (HIV-1)
[6] = target: HIV-1 Env of strain C2101.c01 (HIV-1)
[7] = target: HIV-1 Env of strain CAAN5342.A2 (HIV-1)
[8] = target: HIV-1 Env of strain CNE17 (HIV-1)
[9] = target: HIV-1 Env of strain CNE30 (HIV-1)
[10] = target: HIV-1 Env of strain CNE53 (HIV-1)
[11] = target: HIV-1 Env of strain CNE58 (HIV-1)
[12] = target: HIV-1 Env of strain Ce0682_E4 (HIV-1)
[13] = target: HIV-1 Env of strain Ce2010_F5 (HIV-1)
[14] = target: HIV-1 Env of strain Du156.12 (HIV-1)
[15] = target: HIV-1 Env of strain PVO.4 (HIV-1)
[16] = target: HIV-1 Env of strain Q842.d12 (HIV-1)
[17] = target: HIV-1 Env of strain T251-18 (HIV-1)
[18] = target: HIV-1 Env of strain TRJO4551.58 (HIV-1)
[19] = target: HIV-1 Env of strain WITO4160.33 (HIV-1)
[20] = target: HIV-1 Env of strain X1193_c1 (HIV-1)
[21] = target: HIV-1 Env of strain X1254_c3 (HIV-1)
[22] = target: HIV-1 Env of strain X2131_C1_B5 (HIV-1)
[23] = target: HIV-1 Env of strain ZM109F.PB4 (HIV-1)
[24] = target: HIV-1 Env of strain ZM197M.PB7 (HIV-1)
[25] = target: HIV-1 Env of strain ZM214M.PL15 (HIV-1)

## NIH45-46 G54F IgG (antibody)
[1]
  In vitro neutralization IC80: 0.283 µg/mL
[2]
  In vitro neutralization IC80: 0.24 µg/mL
[3]
  In vitro neutralization IC80: > 50 µg/mL
[4]
  In vitro neutralization IC80: > 50 µg/mL
[5]
  In vitro neutralization IC80: 2.26 µg/mL
[6]
  In vitro neutralization IC80: 0.42 µg/mL
[7]
  In vitro neutralization IC80: 0.28 µg/mL
[8]
  In vitro neutralization IC80: 0.287 µg/mL
[9]
  In vitro neutralization IC80: 0.348 µg/mL
[10]
  In vitro neutralization IC80: 0.024 µg/mL
[11]
  In vitro neutralization IC80: 0.11 µg/mL
[12]
  In vitro neutralization IC80: 0.056 µg/mL
[13]
  In vitro neutralization IC80: 0.186 µg/mL
[14]
  In vitro neutralization IC80: 0.019 µg/mL
[15]
  In vitro neutralization IC80: 0.25 µg/mL
[16]
  In vitro neutralization IC80: 0.039 µg/mL
[17]
  In vitro neutralization IC80: 1.38 µg/mL
[18]
  In vitro neutralization IC80: 0.08 µg/mL
[19]
  In vitro neutralization IC80: 0.14 µg/mL
[20]
  In vitro neutralization IC80: 0.026 µg/mL
[21]
  In vitro neutralization IC80: 0.043 µg/mL
[22]
  In vitro neutralization IC80: 0.41 µg/mL
[23]
  In vitro neutralization IC80: 0.17 µg/mL
[24]
  In vitro neutralization IC80: 0.23 µg/mL
[25]
  In vitro neutralization IC80: 0.3 µg/mL

## NIH45-46 G54W IgG (antibody)
[1]
  In vitro neutralization IC80: 0.16 µg/mL
[2]
  In vitro neutralization IC80: 0.11 µg/mL
[3]
  In vitro neutralization IC80: > 50 µg/mL
[4]
  In vitro neutralization IC80: > 50 µg/mL
[5]
  In vitro neutralization IC80: 0.91 µg/mL
[6]
  In vitro neutralization IC80: 0.17 µg/mL
[7]
  In vitro neutralization IC80: 0.21 µg/mL
[8]
  In vitro neutralization IC80: 0.127 µg/mL
[9]
  In vitro neutralization IC80: 0.196 µg/mL
[10]
  In vitro neutralization IC80: 0.005 µg/mL
[11]
  In vitro neutralization IC80: 0.05 µg/mL
[12]
  In vitro neutralization IC80: 0.039 µg/mL
[13]
  In vitro neutralization IC80: 0.187 µg/mL
[14]
  In vitro neutralization IC80: 0.005 µg/mL
[15]
  In vitro neutralization IC80: 0.16 µg/mL
[16]
  In vitro neutralization IC80: 0.025 µg/mL
[17]
  In vitro neutralization IC80: 0.92 µg/mL
[18]
  In vitro neutralization IC80: 0.05 µg/mL
[19]
  In vitro neutralization IC80: 0.04 µg/mL
[20]
  In vitro neutralization IC80: 0.009 µg/mL
[21]
  In vitro neutralization IC80: 0.018 µg/mL
[22]
  In vitro neutralization IC80: 0.24 µg/mL
[23]
  In vitro neutralization IC80: 0.07 µg/mL
[24]
  In vitro neutralization IC80: 0.18 µg/mL
[25]
  In vitro neutralization IC80: 0.15 µg/mL

## NIH45-46 G54Y IgG (antibody)
[1]
  In vitro neutralization IC80: 0.189 µg/mL
[2]
  In vitro neutralization IC80: 0.23 µg/mL
[3]
  In vitro neutralization IC80: > 50 µg/mL
[4]
  In vitro neutralization IC80: > 50 µg/mL
[5]
  In vitro neutralization IC80: 1.83 µg/mL
[6]
  In vitro neutralization IC80: 0.27 µg/mL
[7]
  In vitro neutralization IC80: 0.27 µg/mL
[8]
  In vitro neutralization IC80: 0.264 µg/mL
[9]
  In vitro neutralization IC80: 0.263 µg/mL
[10]
  In vitro neutralization IC80: 0.027 µg/mL
[11]
  In vitro neutralization IC80: 0.11 µg/mL
[12]
  In vitro neutralization IC80: 0.065 µg/mL
[13]
  In vitro neutralization IC80: 0.235 µg/mL
[14]
  In vitro neutralization IC80: 0.026 µg/mL
[15]
  In vitro neutralization IC80: 0.18 µg/mL
[16]
  In vitro neutralization IC80: 0.045 µg/mL
[17]
  In vitro neutralization IC80: 1.16 µg/mL
[18]
  In vitro neutralization IC80: 0.07 µg/mL
[19]
  In vitro neutralization IC80: 0.09 µg/mL
[20]
  In vitro neutralization IC80: 0.024 µg/mL
[21]
  In vitro neutralization IC80: 0.041 µg/mL
[22]
  In vitro neutralization IC80: 0.39 µg/mL
[23]
  In vitro neutralization IC80: 0.168 µg/mL
[24]
  In vitro neutralization IC80: 0.21 µg/mL
[25]
  In vitro neutralization IC80: 0.23 µg/mL
